Test results: the Human Domainome abundance scans (Beltran et al. 2025)

B1: Ankyrin repeat and SAM domain-containing protein 6, residues 774 to 836; numbered along this chain, Q68DC2 (parent)
chain: DEDELTGILKKLSLEKYQPIFEEQEVDMEAFLTLTDGDLKELGIKTDGSRQQILAAISELNAG

Variants of: B1
Experiment: abundance fitness (aPCA) (normalised: wild type 0, dead -1); higher = more abundant; growth selection in yeast, the domain comes from the species named
Conditions: Homo sapiens

Abundance fitness of substitutions, site by site:
L12: I 0.254; C -0.023; G -0.927; Q -0.567; D -1.08; T -0.35; Y 0.09; W -0.061; M 0.038; K -0.256; S -0.531; E -0.949; F 0.005; H 0.171; R -0.538; V -0.369; A -0.439; N -0.402; P -1.16
S13: Q 0.042; P -0.736; L -0.497; F -0.62; H 0.075; V -0.567; D 0.131; N 0.039; T -0.127; I -0.202; E -0.002; W -0.472; Y -0.623; R -0.04; A -0.067
G7: W -0.005; Q 0.177; C -0.072; F -0.027; N -0.092; M 0.199; V -0.191; L 0.102; R 0.108; A 0.042; Y -0.044; D 0.039; T 0.111; P -0.111; E -0.016; K 0.048; H 0.185; I 0.129
K10: C -1.01; R -0.327; G -0.56; E -0.084; L -0.656; N -0.481; T -0.049; S -0.185; V -0.595; I -0.815; F -1.16; Q -0.233; W -0.831; H -0.406; A -0.069; D -0.663; P -0.525
L14: C -0.64; F -0.583; A -0.94; E -0.777
I8: K -0.162; Y -0.186; V -0.072; A 0.158; Q 0.105; T -0.058; W -0.163; M 0.145; P -1.03; R -0.238; L 0.149; H -0.189; F -0.131; C -0.029; D -0.51; S -0.265; E -0.206; N -0.192
T6: I -0.436; A 0.146; V -0.353
D3: Y 0.116; P -0.177; T -0.118; L 0.133; N -0.074; S 0.054; M 0.209; R -0.064; Q 0.08; V -0.267
L9: W -0.963; H -1.07; T -1.29; A -0.913; K -1.06; C -0.801; G -0.917; F -0.077; S -0.729; I -0.741; Y -0.935; Q -0.876; E -1.02; M -0.193; R -0.999; V -0.712
E4: Q -0.619; P -0.619; F -0.05; I 0.179; N -0.838; Y -0.511; R -0.602; L -0.326; S -0.148; C -0.016; H -0.31; D -0.334; G -0.254; A -0.527; W -0.582; M -0.27; K -0.452; T -0.201; V -0.215
K11: Q -0.099; L -0.363; N -0.254; H -0.621; T -0.428; D -0.166; R -0.071; M -0.195; S -0.305; Y -0.553; P -0.689; A -0.15; E -0.391; G -0.224
L5: I -0.05; R -0.71; G -0.969; V -0.18; P -0.559; M -0.116; A -0.864; Y -0.504; K -0.895; S -0.84; Q -0.639; D -1.01; H -0.839; E -1.07
